We go through five molecules from patent publication US20230416345A1 (NAVIGO PROTEINS, published 2023).

In assay [1] the target is T1, porcine collagen type II (porcine).
T1 construct: Prepared in house from pig eyes; also called p Col II; porcine type II collagen
Put plainly: ELISA (KD determination by ELISA, Example 5). A general note: An ELISA detects its analyte on a solid surface through an enzyme-linked reagent.

The target in assay [2] is T2, human collagen type I (human, UniProt P02452 162-1218; P08123 80-1119).
T2 construct: Bought; also called h Col I; type I collagen
T2 sequence (P02452 162-1218, chain 1 of 2): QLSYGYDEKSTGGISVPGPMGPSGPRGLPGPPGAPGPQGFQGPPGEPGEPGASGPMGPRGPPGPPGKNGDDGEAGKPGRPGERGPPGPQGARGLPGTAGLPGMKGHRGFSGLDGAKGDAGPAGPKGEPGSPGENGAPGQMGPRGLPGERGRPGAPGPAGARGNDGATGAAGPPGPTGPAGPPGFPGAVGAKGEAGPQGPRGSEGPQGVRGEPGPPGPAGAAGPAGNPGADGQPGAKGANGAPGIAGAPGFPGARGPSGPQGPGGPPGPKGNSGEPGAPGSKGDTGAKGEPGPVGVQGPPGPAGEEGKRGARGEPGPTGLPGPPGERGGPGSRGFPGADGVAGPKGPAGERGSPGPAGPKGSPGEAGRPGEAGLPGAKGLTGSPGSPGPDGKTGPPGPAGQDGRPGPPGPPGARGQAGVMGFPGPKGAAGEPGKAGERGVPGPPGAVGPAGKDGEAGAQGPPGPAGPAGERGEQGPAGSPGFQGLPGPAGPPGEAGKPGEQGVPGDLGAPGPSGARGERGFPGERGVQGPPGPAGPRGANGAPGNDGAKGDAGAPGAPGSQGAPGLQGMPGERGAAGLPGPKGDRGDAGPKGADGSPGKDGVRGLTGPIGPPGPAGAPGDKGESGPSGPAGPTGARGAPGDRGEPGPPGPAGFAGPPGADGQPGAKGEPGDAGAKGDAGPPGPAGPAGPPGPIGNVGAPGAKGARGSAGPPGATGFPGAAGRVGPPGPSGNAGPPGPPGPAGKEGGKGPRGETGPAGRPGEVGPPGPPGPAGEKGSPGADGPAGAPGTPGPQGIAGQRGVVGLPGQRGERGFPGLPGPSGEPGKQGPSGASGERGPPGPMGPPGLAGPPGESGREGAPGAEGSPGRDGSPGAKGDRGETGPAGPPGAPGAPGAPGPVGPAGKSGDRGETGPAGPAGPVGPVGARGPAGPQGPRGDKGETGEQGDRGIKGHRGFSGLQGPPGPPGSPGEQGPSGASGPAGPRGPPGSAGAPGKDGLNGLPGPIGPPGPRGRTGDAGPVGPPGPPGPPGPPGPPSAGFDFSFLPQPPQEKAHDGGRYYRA
T2 sequence (P08123 80-1119, chain 2 of 2): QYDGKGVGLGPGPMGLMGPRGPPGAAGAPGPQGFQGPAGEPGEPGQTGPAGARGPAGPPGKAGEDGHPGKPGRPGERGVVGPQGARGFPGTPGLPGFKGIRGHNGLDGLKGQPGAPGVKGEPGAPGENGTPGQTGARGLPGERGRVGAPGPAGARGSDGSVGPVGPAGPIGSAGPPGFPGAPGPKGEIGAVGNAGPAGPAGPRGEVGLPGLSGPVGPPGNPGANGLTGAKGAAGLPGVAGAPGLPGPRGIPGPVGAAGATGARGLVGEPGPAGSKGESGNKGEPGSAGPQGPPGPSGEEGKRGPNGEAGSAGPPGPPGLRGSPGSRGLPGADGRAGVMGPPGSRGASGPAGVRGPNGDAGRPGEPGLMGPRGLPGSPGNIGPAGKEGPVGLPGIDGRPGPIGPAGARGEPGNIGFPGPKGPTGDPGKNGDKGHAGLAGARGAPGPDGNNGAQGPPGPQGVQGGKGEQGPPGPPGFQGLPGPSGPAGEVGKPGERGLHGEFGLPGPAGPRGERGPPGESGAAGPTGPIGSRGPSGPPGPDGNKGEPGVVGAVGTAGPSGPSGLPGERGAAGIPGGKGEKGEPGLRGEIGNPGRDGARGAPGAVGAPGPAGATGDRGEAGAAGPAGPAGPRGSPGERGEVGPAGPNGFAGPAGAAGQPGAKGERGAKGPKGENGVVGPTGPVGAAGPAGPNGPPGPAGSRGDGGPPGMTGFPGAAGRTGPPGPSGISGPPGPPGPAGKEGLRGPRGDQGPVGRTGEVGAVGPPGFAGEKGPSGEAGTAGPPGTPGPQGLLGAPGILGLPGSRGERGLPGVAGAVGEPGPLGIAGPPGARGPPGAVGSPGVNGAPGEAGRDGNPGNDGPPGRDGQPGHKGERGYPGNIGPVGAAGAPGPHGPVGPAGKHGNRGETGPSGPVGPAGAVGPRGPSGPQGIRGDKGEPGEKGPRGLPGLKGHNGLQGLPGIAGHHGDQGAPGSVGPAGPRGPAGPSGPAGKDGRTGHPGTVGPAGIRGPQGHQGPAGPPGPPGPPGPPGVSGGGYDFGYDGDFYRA
Description: SPR (Biacore), response at steady state; concentration not shown. As to the method:
(§1) The purified proteins were immobilized on a CM-5 sensor chip (GE Healthcare) using NHS/EDC after PDEA activation resulting in 110-140 RU with a Biacore 3000 system (GE Healthcare). The chip was equilibrated with SPR running buffer (PBS 0.05% Tween pH 7.3). Upon binding, target analyte was accumulated on the surface increasing the refractive index. This change in the refractive index was measured in real time and plotted as response or resonance units versus time. The analytes were applied to the chip in serial dilutions with a flow rate of 30 μl/min. The association was performed for 120 seconds and the dissociation for 120 seconds. After each run, the chip surface was regenerated with 30 μl regeneration buffer (10 mM glycine pH 2.0) and equilibrated with running buffer.
(§2) Binding studies were carried out by the use of the BIAcore 3000 (GE Healthcare); data evaluation was operated via the BIAevaluation 3.0 software, provided by the manufacturer, using the Langmuir 1:1 model (RI=0). Evaluated dissociation constants (KD) were standardized against the immobilized protein and indicated. Shown is the change in refractive index measured in real time and plotted as response or resonance unit [RU] versus time [sec].
Background: Surface plasmon resonance follows binding to a sensor surface in real time, without labels.

Assay [3] has as its target T3, human collagen type III (human, UniProt P02461 154-1221).
T3 construct: Bought; also called h Col III; type III collagen
T3 sequence (looked up): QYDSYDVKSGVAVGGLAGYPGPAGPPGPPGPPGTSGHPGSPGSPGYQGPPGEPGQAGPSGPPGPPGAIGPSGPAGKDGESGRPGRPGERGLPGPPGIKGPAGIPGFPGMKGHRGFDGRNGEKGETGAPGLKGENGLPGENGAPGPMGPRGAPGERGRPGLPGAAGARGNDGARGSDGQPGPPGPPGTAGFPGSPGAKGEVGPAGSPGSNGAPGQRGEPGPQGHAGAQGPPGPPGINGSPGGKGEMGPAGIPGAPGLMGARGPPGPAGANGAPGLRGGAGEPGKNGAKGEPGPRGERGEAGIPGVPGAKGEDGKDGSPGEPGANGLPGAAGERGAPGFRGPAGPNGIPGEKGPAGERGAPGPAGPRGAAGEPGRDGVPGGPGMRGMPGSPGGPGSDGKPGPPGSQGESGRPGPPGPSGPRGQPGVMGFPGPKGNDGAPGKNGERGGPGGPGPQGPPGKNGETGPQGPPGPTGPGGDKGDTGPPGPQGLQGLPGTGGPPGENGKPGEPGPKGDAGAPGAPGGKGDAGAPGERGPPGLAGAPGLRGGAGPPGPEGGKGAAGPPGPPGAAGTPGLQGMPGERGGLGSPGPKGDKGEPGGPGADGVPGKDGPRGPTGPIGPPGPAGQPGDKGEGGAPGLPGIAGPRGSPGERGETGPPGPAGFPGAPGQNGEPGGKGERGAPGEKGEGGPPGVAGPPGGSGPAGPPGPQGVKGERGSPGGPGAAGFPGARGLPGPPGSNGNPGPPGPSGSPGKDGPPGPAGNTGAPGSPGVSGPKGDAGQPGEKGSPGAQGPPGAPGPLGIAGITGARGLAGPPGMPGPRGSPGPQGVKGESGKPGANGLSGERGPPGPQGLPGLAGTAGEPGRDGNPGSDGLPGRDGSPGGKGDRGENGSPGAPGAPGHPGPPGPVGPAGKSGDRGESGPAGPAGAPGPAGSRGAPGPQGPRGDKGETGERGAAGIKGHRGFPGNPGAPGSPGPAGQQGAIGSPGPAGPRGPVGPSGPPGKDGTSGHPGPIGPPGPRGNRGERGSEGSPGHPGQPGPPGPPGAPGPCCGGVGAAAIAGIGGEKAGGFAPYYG
Described as above. As to the method: as §1, §2

Assay [4] has as its target T4, human collagen type V (human, UniProt P20908 559-1570; P05997 216-1229).
T4 construct: Bought; also called h Col V; type V collagen
Described as above. As to the method:
as §1, §2

For assay [5], the target named is T5, 67B89 (domain of fibronectin) (UniProt P02751 1089-1540, limits assumed).
T5 construct: domain: EDB (67B89); Unrelated control protein; also called fibronectin domain EDB (67B89); extradomain B of fibronectin
T5 sequence (P02751 1089-1540 limits assumed): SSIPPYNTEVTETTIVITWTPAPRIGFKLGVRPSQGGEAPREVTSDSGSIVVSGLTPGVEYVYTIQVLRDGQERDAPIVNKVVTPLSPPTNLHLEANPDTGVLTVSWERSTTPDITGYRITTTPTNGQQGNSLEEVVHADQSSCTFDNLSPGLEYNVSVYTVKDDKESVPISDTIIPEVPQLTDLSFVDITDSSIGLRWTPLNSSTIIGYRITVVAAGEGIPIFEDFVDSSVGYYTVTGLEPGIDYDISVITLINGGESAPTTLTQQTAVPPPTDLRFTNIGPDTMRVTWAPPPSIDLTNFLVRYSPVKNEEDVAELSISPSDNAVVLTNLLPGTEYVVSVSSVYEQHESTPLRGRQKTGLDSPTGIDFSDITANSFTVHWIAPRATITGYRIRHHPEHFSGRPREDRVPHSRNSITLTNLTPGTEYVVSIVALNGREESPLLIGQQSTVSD
The description is as above. As to the method: as §1, §2

The target in assay [6] is T6, BSA (UniProt P02769 25-607).
T6 construct: Control protein
The description is as above. As to the method: as §1, §2

Assay [7] concerns the target T5, 67B89 (domain of fibronectin). Put plainly: ELISA, 67B89 coated on the plate, A 450-600 nm. As to the method: (§3) High binding plates (Greiner, 781061) were immobilized with 2.5 μg/ml recombinant human collagen type II (h Col II, Chondrex, CHX-20051), rabbit collagen type II (rbCol II, prepared from rabbit eyes), porcine collagen type II (p Col II, prepared from porcine eyes), human collagen type I, (h Col I, Sigma, C5483-1MG), human collagen type V (h Col V, Abcam, ab7537), human collagen type III (h Col Ill, Abcam, ab7535) and 67B89 (domain of fibronectin, produced in E. coli) respectively over night at 4° C. ELISA-plates were washed 3 times with PBST (PBS+ 0.1% Tween) and blocked with 3% BSA/0.5% Tween/PBS 2 h at RT. […] Plates were washed with PBST and incubated with biotinylated anti-StrepTag-ab (Antikörper-online, ABIN1573895) with a dilution of 1:10.000 for 1 h at rt. The binding was visualized with a-rabbit-IgG-HRP (Sigma, A9169) with a dilution of 1:10.000 and as substrate TMB Plus von KEM EN TEC Diagnostic, Kat-Nr. 4395.
(§4) Results. ELISA analysis clearly confirms the specific binding to type II collagen. […] No unspecific binding to type I collagen, type III collagen, type V collagen or to a domain of fibronectin (67B89) was detected (FIG. 2).

The target in assay [8] is T2, human collagen type I. Description: ELISA, h Col I coated on the plate, A 450-600 nm. As to the method: as §3, §4
Assay [9] has as its target T4, human collagen type V. Description: ELISA, h Col V coated on the plate, A 450-600 nm. As to the method:
as §3, §4

Assay [10] has as its target T3, human collagen type III. Description: ELISA, h Col III coated on the plate, A 450-600 nm. As to the method: as §3, §4
In assay [11] the target is T1, porcine collagen type II. Put plainly: ELISA, collagen coated on the plate, dilution series of the binder, detection via StrepTag, A 450-600 nm. The procedure: as §3, §4
Another assay addresses T7, rabbit collagen type II (rabbit).
T7 construct: Prepared from rabbit eyes; also called rbCol II
Described as above. As to the method: as §3, §4

The target in assay [12] is T4, human collagen type V. Put plainly: SPR (Biacore 3000). The procedure:
as §1, §2

Assay [13] has as its target T5, 67B89 (domain of fibronectin). Put plainly: SPR (Biacore 3000). As to the method: as §1, §2
The target of assay [14] is T6, BSA. Put plainly: SPR (Biacore 3000). As to the method:
as §1, §2

T4 sequence (P20908 559-1570, chain 1 of 2): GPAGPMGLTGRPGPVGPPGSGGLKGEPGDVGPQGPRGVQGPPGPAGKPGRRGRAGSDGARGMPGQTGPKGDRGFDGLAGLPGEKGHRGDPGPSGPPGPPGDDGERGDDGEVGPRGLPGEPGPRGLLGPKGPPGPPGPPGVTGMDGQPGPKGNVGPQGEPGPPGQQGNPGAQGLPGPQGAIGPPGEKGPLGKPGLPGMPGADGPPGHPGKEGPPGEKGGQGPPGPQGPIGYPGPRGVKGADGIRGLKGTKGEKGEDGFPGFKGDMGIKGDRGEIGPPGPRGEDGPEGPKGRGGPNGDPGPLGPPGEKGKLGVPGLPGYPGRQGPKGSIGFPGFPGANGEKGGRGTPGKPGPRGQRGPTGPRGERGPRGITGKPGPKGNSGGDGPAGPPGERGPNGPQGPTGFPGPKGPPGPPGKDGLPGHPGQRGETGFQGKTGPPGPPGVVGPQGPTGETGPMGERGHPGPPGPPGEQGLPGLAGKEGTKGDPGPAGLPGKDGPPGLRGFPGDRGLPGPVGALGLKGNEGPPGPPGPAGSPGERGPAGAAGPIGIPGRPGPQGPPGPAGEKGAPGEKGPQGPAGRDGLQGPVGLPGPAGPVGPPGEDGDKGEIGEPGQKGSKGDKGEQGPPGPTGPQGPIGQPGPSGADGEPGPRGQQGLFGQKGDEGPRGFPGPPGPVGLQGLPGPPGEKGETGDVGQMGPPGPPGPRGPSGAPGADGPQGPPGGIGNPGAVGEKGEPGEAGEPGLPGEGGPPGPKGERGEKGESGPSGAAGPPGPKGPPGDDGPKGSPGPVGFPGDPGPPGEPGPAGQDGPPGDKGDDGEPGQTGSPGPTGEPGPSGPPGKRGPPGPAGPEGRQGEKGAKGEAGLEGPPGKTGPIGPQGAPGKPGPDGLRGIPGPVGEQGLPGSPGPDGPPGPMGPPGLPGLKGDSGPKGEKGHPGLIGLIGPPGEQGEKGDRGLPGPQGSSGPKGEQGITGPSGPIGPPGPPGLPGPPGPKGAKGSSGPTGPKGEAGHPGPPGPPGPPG
T4 sequence (P05997 216-1229, chain 2 of 2): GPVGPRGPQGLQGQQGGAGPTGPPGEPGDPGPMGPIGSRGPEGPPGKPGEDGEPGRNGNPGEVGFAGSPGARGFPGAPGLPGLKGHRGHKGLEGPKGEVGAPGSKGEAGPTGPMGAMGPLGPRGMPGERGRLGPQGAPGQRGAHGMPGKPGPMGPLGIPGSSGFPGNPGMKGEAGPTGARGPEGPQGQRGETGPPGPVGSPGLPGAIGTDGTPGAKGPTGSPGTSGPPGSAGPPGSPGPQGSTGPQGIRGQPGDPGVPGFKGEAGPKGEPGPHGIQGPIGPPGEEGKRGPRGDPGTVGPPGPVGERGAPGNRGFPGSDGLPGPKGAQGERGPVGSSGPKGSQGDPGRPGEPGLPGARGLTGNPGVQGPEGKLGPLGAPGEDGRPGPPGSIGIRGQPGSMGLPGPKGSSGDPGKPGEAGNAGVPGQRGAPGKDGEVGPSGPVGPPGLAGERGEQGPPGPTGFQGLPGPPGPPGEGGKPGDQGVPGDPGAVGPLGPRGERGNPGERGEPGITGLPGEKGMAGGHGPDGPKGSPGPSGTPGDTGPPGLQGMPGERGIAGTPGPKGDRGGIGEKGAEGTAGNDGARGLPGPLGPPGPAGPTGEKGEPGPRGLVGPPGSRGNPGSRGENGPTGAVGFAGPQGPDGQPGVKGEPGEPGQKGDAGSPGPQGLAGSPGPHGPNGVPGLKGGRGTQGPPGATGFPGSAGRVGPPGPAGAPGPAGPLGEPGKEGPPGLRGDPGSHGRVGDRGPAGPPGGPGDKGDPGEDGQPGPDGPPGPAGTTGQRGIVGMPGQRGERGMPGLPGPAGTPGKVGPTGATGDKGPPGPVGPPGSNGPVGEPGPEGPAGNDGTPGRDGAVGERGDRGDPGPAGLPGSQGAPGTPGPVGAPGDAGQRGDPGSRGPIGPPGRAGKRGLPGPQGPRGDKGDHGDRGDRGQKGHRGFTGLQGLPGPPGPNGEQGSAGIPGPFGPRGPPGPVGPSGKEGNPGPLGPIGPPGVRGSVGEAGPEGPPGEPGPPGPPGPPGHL

B1: 211519 (SEQ ID NO: 37), homodimer of SEQ ID NO: 11 (designed binder)
chain: IAAKFDEAQQAAFYEILHLPNLTEQQRNYFIQWLRDDPSVSPTVLGTAQQLNDSQAPKIAAKFDEAQQAAFYEILHLPNLTEQQRNYFIQWLRDDPSVSPTVLGTAQQLNDSQAPK
notes: also called CID 211519; not shown: C-terminal Strep-tag from the expression vector
For orientation: Kd means the free concentration of one partner at which half of the binding sites on the other are occupied at equilibrium, for simple one-to-one binding. Low readings indicate tighter binding, high ones weaker binding. In the assay with porcine collagen type II [1], B1 gave a Kd of 700 nM. The binding result (with human collagen type I [2]; with human collagen type III [3]; with human collagen type V [4]; in assay [5]; with BSA [6]) was “no binding” each time.

B2: CID 211999 (SEQ ID NO: 38), dimer of SEQ ID NO: 2 (directly joint monomers) (designed binder)
chain: IAAKFDEAQSAADSEILHLPNLTEQQRHYFRRWLSDDPSVSTHILTQAQHLNDDQAPKIAAKFDEAQSAADSEILHLPNLTEQQRHYFRRWLSDDPSVSTHILTQAQHLNDDQAPKSAWSHPQFEK
notes: not shown: C-terminal Strep-tag (detected with anti-StrepTag antibody)
For B2, the binding result (in assay [7]; with human collagen type I [8]; with human collagen type V [9]; with human collagen type III [10]) was “no binding (tested: about 1100 nM)” throughout. For the same molecule, the Kd with porcine collagen type II [11] was 14.3 nM; in the assay with rabbit collagen type II it was 21.1 nM.

B3: CID 212000 (SEQ ID NO: 39), dimer of SEQ ID NO: 2 with linker between the monomers (designed binder)
chain: IAAKFDEAQSAADSEILHLPNLTEQQRHYFRRWLSDDPSVSTHILTQAQHLNDDQAPKGGGGSGGGGSGGGGSGGGGSIAAKFDEAQSAADSEILHLPNLTEQQRHYFRRWLSDDPSVSTHILTQAQHLNDDQAPKSAWSHPQFEK
notes: as for B2
Take B3: the binding result (in [7]; with human collagen type I [8]; with human collagen type V [9]; with human collagen type III [10]) was “no binding (tested: about 1100 nM)” in each case. Also, the values for the Kd with porcine collagen type II [11] and with rabbit collagen type II were 9.11 nM and 12 nM, respectively.

B4: CID 212001 (SEQ ID NO: 41), tetramer of SEQ ID NO: 2 (designed binder)
chain: IAAKFDEAQSAADSEILHLPNLTEQQRHYFRRWLSDDPSVSTHILTQAQHLNDDQAPKIAAKFDEAQSAADSEILHLPNLTEQQRHYFRRWLSDDPSVSTHILTQAQHLNDDQAPKIAAKFDEAQSAADSEILHLPNLTEQQRHYFRRWLSDDPSVSTHILTQAQHLNDDQAPKIAAKFDEAQSAADSEILHLPNLTEQQRHYFRRWLSDDPSVSTHILTQAQHLNDDQAPKSAWSHPQFEK
notes: as for B2
B4: the binding result (in assay [7]; with human collagen type I [8]; in the assay with human collagen type V [9]; in the assay with human collagen type III [10]) was “no binding (tested: 100 nM)” each time. The Kd in the assay with porcine collagen type II [11] was found to be 0.27 nM; with rabbit collagen type II it was 0.21 nM.

B5: 211190 (SEQ ID NO: 1) (designed binder)
chain: NAASHDEAQLSALVEIWDLPNLTTRQKQKFIYSLQRDPSVSKEVLGEAQKLNDSQAPK
notes: also called CID211190; not shown: C-terminal Strep-tag from the expression vector
As for B5, the binding result (with human collagen type V [12]; in [13]; in the assay with BSA [14]) was “no binding” in each case.
